Source: article PMC5456102, “NGR-peptide−drug conjugates with dual targeting properties” (PLoS ONE, 2017)
Positions of bridges follow the written chain, without caps; N, C: chain ends. Residues, ends and D or L forms follow the SMILES beside them. Groups on a side chain read outwards from the residue. Chains are numbered I, II in the order given. *: point of attachment. Daunorubicin(13-NOCH2CO) = COc1cccc2c1C(=O)c1c(O)c3c(c(O)c1C2=O)C[C@@](O)(C(C)=NOCC(=O)*)C[C@@H]3O[C@H]1C[C@H](N)[C@H](O)[C@H](C)O1

How the values were obtained:
Lysosomal degradation = format: in vitro ADME; settings: rat liver lysosomal homogenate, 37°C, LC-MS; for time within which the conjugate decomposed in lysosomal homogenate / rate of decomposition in lysosomal homogenate: 0.2 M NaOAc pH 5.0, conjugate/homogenate 1:1 w/w; for time within which the conjugate decomposed in lysosomal homogenate: conjugate 0.2 μg/μL, samples at 5 min, 72 h; for time within which the conjugate decomposed in lysosomal homogenate / starting conjugate found after 6 h incubation in lysosomal homogenate: 6 h; for starting conjugate found after 6 h incubation in lysosomal homogenate: 0.2 M NaOAc pH 5.0, 1:1 w/w
Method: Rat liver lysosomal homogenate was prepared as described previously. Protein concentration was determined with bicinchoninic acid (Pierce BCA protein assay) according to the manufacturer’s protocol (ThermoFisher Scientific, Rockford, IL, USA) and it was 17.4 μg/μL. Degradation of the bioconjugates in the rat liver lysosomal homogenate was determined as follows: i) bioconjugates were dissolved in d.i. water at a concentration of 4 μg/μL, ii) the solutes were further diluted to a concentration of 0.2 μg/μL with 0.2 M NaOAc (pH 5.0), iii) the rat liver lysosomal homogenate was diluted with 0.2 M NaOAc (pH 5.0) to a concentration of 3.48 μg/μL, iv) the homogenate was added to the conjugates (conjugate/lysosomal homogenate ratio = 1:1, w/w), v) the reaction mixtures were incubated at 37°C and aliquots of 13 μL were taken at 5 min, 6 h and 72 h, vi) the reactions were quenched by adding 2 μL of formic acid, followed by LC-MS analysis (Bruker Esquire 3000+; Jasco PU-2085plus system; Supelco Ascentis C18 coloum, 3 μm, 2,1 x 150 mm, 100 Å).
Conjugates for drug targeting with receptor-binding peptides may enter the cells by receptor mediated endocytosis. Endocytic vesicles fuse with lysosomes, which is followed by the degradation of the conjugates by lysosomal enzymes. Cathepsin B is one of the main lysosomal enzymes overexpressed in cancer cells. Therefore, Cathepsin B labile spacers (e.g. GFLG tetrapeptide) are often incorporated between the drug and targeting moiety. We used a rat lysosomal homogenate to study the degradation of conjugates and to follow the release of drug containing metabolites (Fig 9, S9–S14 Figs). […] In addition, a minor peak corresponding to Dau = Aoa-Gly-Phe-OH could also be detected. The peak corresponding to Dau = Aoa-GF-OH was the highest in case of conjugate 1. In contrast to these conjugates, decomposition of the disulfide bond containing conjugate (2) was much slower. […] This slow degradation might be one of the reasons why conjugate 2 is less toxic than conjugate 5, which has the same ring size. […] After 72 h only Dau = Aoa-Gly-OH could be detected in cases of all conjugates.

HT-1080 cells = assay: Cellular uptake by flow cytometry; format: cell-based, human; settings: 10 μM conjugate in FBS supplemented medium, 6 h, 37°C, flow cytometry of Dau fluorescence, live cells (Zombie Violet)
Method: (§1) HT-1080 and HT-29 cells were seeded at a 250,000 cells/well density, and were incubated overnight in their culturing media. The following day daunomycin conjugates were dissolved in culturing media (FBS supplemented), and added to the cells immediately at 10 μM final concentration. After 6 h incubation at 37°C the supernatant was removed, cells were washed with PBS and trypsinized with 0.1% trypsin (Gibco® by Life Technologies) for 10 minutes. Trypsinization was terminated with FBS containing medium, then cells were washed and suspended in serum free medium. For live/dead distinction we used Zombie Violet reagent (BioLegend, San Diego, CA). Samples were measured and analyzed with an Attune® Acoustic Focusing Cytometer (ThermoFisher Scientific).
(§2) As daunomycin-conjugates are fluorescent, we were able to follow their cellular uptake with a flow cytometer (Fig 10, S15 Fig). […] The higher uptake of 2 compared to 5 might partly compensate its slower degradation resulting in almost similar bioactivity. […] We speculate that the high cytostatic effect of 3 is explained by its fast decomposition resulting in the active Dau = Aoa-Gly-OH metabolite. […] However, after deamidation the formed isoDGR might be recognized by RGD integrin receptor, that results in moderate cytotoxicity in both cell lines during a longer treatment. […] Taking also the slow metabolite release into account, this observation explains the lack of significant cytostatic effect.
(§3) Fig 10 Direct uptake of daunomycin-conjugates. Normalized uptake values indicate the fold increase of the measured fluorescent units compared to the autofluorescence of empty cells.

HT-29 cells = assay: Cellular uptake by flow cytometry; format: cell-based, human; settings: 10 μM conjugate in FBS supplemented medium, 6 h, 37°C, flow cytometry of Dau fluorescence, live cells (Zombie Violet)
Method: as §1, §2, §3

[1] = non-conjugated cyclic peptides; cited from earlier work
Excerpt: Cyclic NGR peptides are promising candidates as targeting moieties for drug delivery to CD13-positive tumor cells and the tumor neovasculature. Up to now the most widely used NGR peptide conjugates have been based on the disulfide bridge containing cyclic peptide [CNGRC]. The cargo (including tumor necrosis factor (TNF), platina complexes, etc.) is usually attached to the C-terminus of the peptide. Recently, an amide bond containing cyclic NGR peptide ([KNGRE]-NH2) with higher resilience against deamidation has been described, in which cargos such as fluorescent labels or chelated ...

Compound	time within which the conjugate decomposed in lysosomal homogenate (Lysosomal degradation)	cellular uptake in HT-1080 cells (HT-1080 cells)	cellular uptake in HT-29 cells (HT-29 cells)	starting conjugate found after 6 h incubation in lysosomal homogenate (Lysosomal degradation)	rate of decomposition in lysosomal homogenate (Lysosomal degradation)	chemostability class of the free cyclic NGR peptide (deamidation) [1]
COc1cccc2c1C(=O)c1c(O)c3c(c(O)c1C2=O)C[C@@](O)(C(C)=NOCC(=O)NCC(=O)N[C@@H](Cc1ccccc1)C(=O)N[C@@H](CC(C)C)C(=O)NCC(=O)N[C@@H](CCCCNC(=O)CNC(=O)CNC(=O)[C@@H]1CSCC(=O)N[C@@H](CC(N)=O)C(=O)NCC(=O)N[C@@H](CCCNC(=N)N)C(=O)N1)C(N)=O)C[C@@H]3O[C@H]1C[C@H](N)[C@H](O)[C@H](C)O1 [compound 1, Dau = GFLGK([CH2CO-NGRC]GG)-NH2] (I: {CH2CO}-NGRCGG / II: {Daunorubicin(13-NOCH2CO)}-GFLGK-NH2; amide I:C-II:5; thioether I:N-I:4)	≤ 6 h	did not show significant cellular uptake	did not show significant cellular uptake			
COc1cccc2c1C(=O)c1c(O)c3c(c(O)c1C2=O)C[C@@](O)(C(C)=NOCC(=O)NCC(=O)N[C@@H](Cc1ccccc1)C(=O)N[C@@H](CC(C)C)C(=O)NCC(=O)N[C@@H](CCCCNC(=O)CNC(=O)CNC(=O)[C@@H]1CSSC[C@H](NC(C)=O)C(=O)N[C@@H](CC(N)=O)C(=O)NCC(=O)N[C@@H](CCCNC(=N)N)C(=O)N1)C(N)=O)C[C@@H]3O[C@H]1C[C@H](N)[C@H](O)[C@H](C)O1 [compound 2, Dau = GFLGK(Ac-[CNGRC]GG)-NH2] (I: Ac-CNGRCGG / II: {Daunorubicin(13-NOCH2CO)}-GFLGK-NH2; disulfide I:1-I:5; amide I:C-II:5)		higher accumulation	higher accumulation	the presence of the starting compound could be detected	much slower	
COc1cccc2c1C(=O)c1c(O)c3c(c(O)c1C2=O)C[C@@](O)(C(C)=NOCC(=O)NCC(=O)N[C@@H](Cc1ccccc1)C(=O)N[C@@H](CC(C)C)C(=O)NCC(=O)N[C@@H](CCCCNC(=O)CNC(=O)CNC(=O)[C@@H]1CSCC(=O)N[C@@H](CCCCN)C(=O)N[C@@H](CC(N)=O)C(=O)NCC(=O)N[C@@H](CCCNC(=N)N)C(=O)N1)C(N)=O)C[C@@H]3O[C@H]1C[C@H](N)[C@H](O)[C@H](C)O1 [compound 3, Dau = GFLGK([CH2CO-KNGRC]GG)-NH2] (I: {CH2CO}-KNGRCGG / II: {Daunorubicin(13-NOCH2CO)}-GFLGK-NH2; amide I:C-II:5; thioether I:N-I:5)	≤ 6 h	moderate uptake	moderate uptake			
COc1cccc2c1C(=O)c1c(O)c3c(c(O)c1C2=O)C[C@@](O)(C(C)=NOCC(=O)NCC(=O)N[C@@H](Cc1ccccc1)C(=O)N[C@@H](CC(C)C)C(=O)NCC(=O)NCCCC[C@@H]1NC(=O)CSC[C@@H](C(N)=O)NC(=O)[C@H](CCCNC(=N)N)NC(=O)CNC(=O)[C@H](CC(N)=O)NC1=O)C[C@@H]3O[C@H]1C[C@H](N)[C@H](O)[C@H](C)O1 [compound 4, [CH2CO-K(Dau = Aoa-GFLG)NGRC]-NH2] ({CH2CO}-K([Gly-Leu-Phe-Gly-Daunorubicin(13-NOCH2CO)])NGRC-NH2; thioether N-5)		low cellular uptake	low cellular uptake	the main components were still the intact conjugates	decomposed very slowly	
COc1cccc2c1C(=O)c1c(O)c3c(c(O)c1C2=O)C[C@@](O)(C(C)=NOCC(=O)NCC(=O)N[C@@H](Cc1ccccc1)C(=O)N[C@@H](CC(C)C)C(=O)NCC(=O)NCCCC[C@@H]1NC(=O)CC[C@@H](C(N)=O)NC(=O)[C@H](CCCNC(=N)N)NC(=O)CNC(=O)[C@H](CC(N)=O)NC1=O)C[C@@H]3O[C@H]1C[C@H](N)[C@H](O)[C@H](C)O1 [compound 6, [K(Dau = Aoa-GFLG)NGRE]-NH2] (K([Gly-Leu-Phe-Gly-Daunorubicin(13-NOCH2CO)])NGRE-NH2; lactam N-5)		low cellular uptake	low cellular uptake	the main components were still the intact conjugates	decomposed very slowly	
Ac-CNGRC-NH2 (disulfide 1-5) [Ac-[CNGRC]-NH2, disulfide bridge containing cyclic NGR peptide]						moderately
c[CH2-CO-KNGRC]-NH2 (sidechain bridge or staple) [thioether bond containing cyclic NGR peptide]						highly labile
c[CH2-CO-NGRC]-NH2						highly labile
c[KNGRE]-NH2 (lariat or depsi) [head-to-side chain amide bond cyclized NGR peptide]						stable
